Reference: the Human Domainome abundance scans (Beltran et al. 2025)
± gives the uncertainty stated by the source.

B1: Chromodomain-helicase-DNA-binding protein 4, residues 444 to 496; numbered along this chain, Q14839 (parent)
chain: EDDHHMEFCRVCKDGGELLCCDTCPSSYHIHCLNPPLPEIPNGEWLCPRCTCP

Variants of: B1
Experiment: abundance fitness (aPCA) (normalised: wild type 0, dead -1); higher = more abundant; growth selection in yeast, the domain comes from the species named
Settings: Homo sapiens

Abundance fitness of substitutions, site by site:
V11: C -0.255 ± 0.067; Y -0.377 ± 0.073; N -0.104 ± 0.078; M -0.026 ± 0.061; A -0.316 ± 0.065; G -0.135 ± 0.057; F -0.359 ± 0.067; S -0.159 ± 0.049
C20: M 0.017 ± 0.064; A 0.099 ± 0.057; D 0.012 ± 0.082; K 0.095 ± 0.078; Y 0.066 ± 0.049; E 0.136 ± 0.065; H 0.168 ± 0.065; W 0.069 ± 0.056; V -0.035 ± 0.045; R 0.13 ± 0.048; I 0.103 ± 0.042; F -0.035 ± 0.06; L 0.012 ± 0.043; G 0.083 ± 0.059; P 0.096 ± 0.057; Q 0.17 ± 0.065; S 0.093 ± 0.047; N 0.14 ± 0.069
E17: Y -0.644 ± 0.06; P -0.657 ± 0.06; G -0.289 ± 0.064; K 0.117 ± 0.066; M -0.098 ± 0.06; Q -0.146 ± 0.066; R -0.123 ± 0.061; A -0.309 ± 0.064; V -0.215 ± 0.071; L -0.535 ± 0.047; S -0.184 ± 0.053; W -0.576 ± 0.081; T 0.015 ± 0.051; C -0.382 ± 0.12; N -0.077 ± 0.062; H -0.906 ± 0.064; D -0.232 ± 0.076; F -0.395 ± 0.064; I -0.206 ± 0.06
H4: Y 0.078 ± 0.088
M6: A 0.023 ± 0.047; I -0.021 ± 0.048; C -0.207 ± 0.05; R -0.477 ± 0.051; D 0.023 ± 0.05; S -0.147 ± 0.038; T 0.028 ± 0.047; Q -0.508 ± 0.042; N -0.055 ± 0.062; L -0.665 ± 0.041; F -0.204 ± 0.04; H -0.713 ± 0.043; G -0.056 ± 0.049; W -0.231 ± 0.04
D22: N -0.085 ± 0.065; E -0.055 ± 0.093; H -0.02 ± 0.052; L -0.067 ± 0.04; K 0.129 ± 0.053; G -0.011 ± 0.05; Q -0.067 ± 0.072; M -0.26 ± 0.072; A 0.032 ± 0.051; P -0.095 ± 0.045; Y -0.112 ± 0.066; V -0.159 ± 0.046; W -0.254 ± 0.08; T 0.074 ± 0.047; F 0.005 ± 0.057; R -0.058 ± 0.059; I -0.399 ± 0.077
G16: T -0.432 ± 0.056; D -0.275 ± 0.057; E 0.019 ± 0.087; S -0.279 ± 0.053; A -0.558 ± 0.078; W -0.906 ± 0.12; R -0.424 ± 0.073; Q -0.559 ± 0.059; C -0.985 ± 0.19; L -0.7 ± 0.061; H -0.831 ± 0.055; V -0.842 ± 0.1; N -0.186 ± 0.078; Y -0.83 ± 0.11; F -0.556 ± 0.099; M -0.579 ± 0.089; I -0.74 ± 0.093; P -1.18 ± 0.084; K -0.143 ± 0.054
E7: I -0.481 ± 0.072; H -0.22 ± 0.067; Y -0.813 ± 0.055; D -0.048 ± 0.064; N -0.664 ± 0.065; F -0.002 ± 0.06; C -0.15 ± 0.086; K -0.492 ± 0.061; P -0.401 ± 0.052; T -0.618 ± 0.073; V -0.205 ± 0.058; Q -0.224 ± 0.074; L -0.121 ± 0.042; W -0.599 ± 0.095; S -0.364 ± 0.061; A -0.366 ± 0.07; M -0.433 ± 0.05; G -0.239 ± 0.085; R -0.174 ± 0.069
F8: E 0.138 ± 0.082; L -0.164 ± 0.051; V 0.012 ± 0.047; K -0.103 ± 0.062; I -0.019 ± 0.05; W -0.041 ± 0.062; M -0.073 ± 0.063; N -0.044 ± 0.069; P -0.388 ± 0.045; T -0.091 ± 0.055; A -0.103 ± 0.061; H -0.249 ± 0.043; G 0.086 ± 0.071; R -0.033 ± 0.047; C -0.048 ± 0.059; D -0.166 ± 0.06; S -0.124 ± 0.045
L19: P -0.484 ± 0.063; N -0.116 ± 0.079; E -0.632 ± 0.1; G -0.488 ± 0.052; H -0.189 ± 0.055; Y -0.276 ± 0.066; M 0.041 ± 0.066; C -0.075 ± 0.076; F -0.262 ± 0.073; S -0.291 ± 0.046; V -0.056 ± 0.059; R -0.314 ± 0.044; A 0.118 ± 0.048; K -0.033 ± 0.072; I 0.1 ± 0.068; T 0.037 ± 0.05; D -0.354 ± 0.089; Q -0.157 ± 0.065
C9: V -0.988 ± 0.11; D -0.601 ± 0.11; Q -0.668 ± 0.07; P -0.797 ± 0.052; W -0.844 ± 0.15; S -0.849 ± 0.068; T -0.815 ± 0.061; E -0.483 ± 0.1; N -0.689 ± 0.054; K -0.54 ± 0.051; H -0.79 ± 0.064; M -0.98 ± 0.1; Y -0.979 ± 0.13; R -0.571 ± 0.066; A -0.777 ± 0.11; G -0.535 ± 0.094; I -0.827 ± 0.083
